Reference: publication PMC3898472, “Molecular Basis for DNA Double-Strand Break Annealing and Primer Extension by an NHEJ DNA Polymerase”

Biological target: Mt-PolDom K217A (UniProt P9WNV3 1-300, K217A)
Test: EMSA
Details: protein: recombinant; label: 32P 5'-end label

B1: 1-nt gapped SP1C/T13C/DG-P (dsDNA)
DNA 1: AGAAGTGTATCTAGTACTCACTGTGATC
DNA 2: GATCACAGTGAGTAC
DNA 3: AGATACACTTCT
modifications: 5'-phosphate on DG
binding result: binds
